Source: US20040037775A1 (published 2004)
No end group written: not given here. *: point of attachment. MTX = methotrexate, its gamma-carboxylic acid amide-linked to the peptide N-terminus, CN(Cc1cnc2nc(N)nc(N)c2n1)c1ccc(C(=O)N[C@@H](CCC(=O)*)C(=O)O)cc1

Legend:
Experiment in all cases: cell-based or functional assay
[1] = target: LFA-1 receptor on human Molt-3 T-cells (human, UniProt P20701 26-1170; P05107 23-769)
[2] = target: LFA-1 on mouse L1210 T-cells (mouse, UniProt P24063 24-1162; P11835 24-771)
[3] = target: dihydrofolate reductase enzyme (DHFR)

Chain of LFA-1 on mouse L1210 T-cells (P24063 24-1162, chain 1 of 2): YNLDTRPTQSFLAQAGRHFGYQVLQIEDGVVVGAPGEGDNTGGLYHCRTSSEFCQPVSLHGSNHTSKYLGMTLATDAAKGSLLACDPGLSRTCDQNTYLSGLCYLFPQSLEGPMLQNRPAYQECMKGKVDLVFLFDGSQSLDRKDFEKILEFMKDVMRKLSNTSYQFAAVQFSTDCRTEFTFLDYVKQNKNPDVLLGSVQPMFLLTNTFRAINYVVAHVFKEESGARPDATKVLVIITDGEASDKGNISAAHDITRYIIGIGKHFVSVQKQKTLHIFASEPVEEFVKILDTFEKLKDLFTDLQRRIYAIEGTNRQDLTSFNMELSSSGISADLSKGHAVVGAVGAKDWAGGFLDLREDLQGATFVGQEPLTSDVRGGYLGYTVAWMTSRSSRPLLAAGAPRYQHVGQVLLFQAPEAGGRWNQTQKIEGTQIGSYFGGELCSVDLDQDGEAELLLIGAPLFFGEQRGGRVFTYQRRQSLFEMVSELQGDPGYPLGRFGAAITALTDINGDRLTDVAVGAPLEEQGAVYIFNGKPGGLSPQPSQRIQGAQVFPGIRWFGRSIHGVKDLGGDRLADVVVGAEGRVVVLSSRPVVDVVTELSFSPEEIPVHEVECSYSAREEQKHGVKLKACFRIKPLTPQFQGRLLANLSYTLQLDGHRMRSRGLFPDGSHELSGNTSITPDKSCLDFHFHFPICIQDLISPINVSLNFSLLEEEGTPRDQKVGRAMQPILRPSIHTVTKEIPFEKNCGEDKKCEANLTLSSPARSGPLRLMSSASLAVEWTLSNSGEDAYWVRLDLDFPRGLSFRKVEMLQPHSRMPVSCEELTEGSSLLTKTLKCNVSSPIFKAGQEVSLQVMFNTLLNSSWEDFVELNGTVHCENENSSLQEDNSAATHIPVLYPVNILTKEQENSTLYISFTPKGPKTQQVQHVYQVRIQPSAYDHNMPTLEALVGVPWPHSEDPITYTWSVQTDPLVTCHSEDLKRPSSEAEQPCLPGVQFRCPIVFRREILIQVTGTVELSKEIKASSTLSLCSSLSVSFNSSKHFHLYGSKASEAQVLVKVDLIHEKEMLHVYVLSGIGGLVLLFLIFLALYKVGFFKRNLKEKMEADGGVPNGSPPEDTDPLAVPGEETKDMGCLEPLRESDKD
Chain of LFA-1 on mouse L1210 T-cells (P11835 24-771, chain 2 of 2): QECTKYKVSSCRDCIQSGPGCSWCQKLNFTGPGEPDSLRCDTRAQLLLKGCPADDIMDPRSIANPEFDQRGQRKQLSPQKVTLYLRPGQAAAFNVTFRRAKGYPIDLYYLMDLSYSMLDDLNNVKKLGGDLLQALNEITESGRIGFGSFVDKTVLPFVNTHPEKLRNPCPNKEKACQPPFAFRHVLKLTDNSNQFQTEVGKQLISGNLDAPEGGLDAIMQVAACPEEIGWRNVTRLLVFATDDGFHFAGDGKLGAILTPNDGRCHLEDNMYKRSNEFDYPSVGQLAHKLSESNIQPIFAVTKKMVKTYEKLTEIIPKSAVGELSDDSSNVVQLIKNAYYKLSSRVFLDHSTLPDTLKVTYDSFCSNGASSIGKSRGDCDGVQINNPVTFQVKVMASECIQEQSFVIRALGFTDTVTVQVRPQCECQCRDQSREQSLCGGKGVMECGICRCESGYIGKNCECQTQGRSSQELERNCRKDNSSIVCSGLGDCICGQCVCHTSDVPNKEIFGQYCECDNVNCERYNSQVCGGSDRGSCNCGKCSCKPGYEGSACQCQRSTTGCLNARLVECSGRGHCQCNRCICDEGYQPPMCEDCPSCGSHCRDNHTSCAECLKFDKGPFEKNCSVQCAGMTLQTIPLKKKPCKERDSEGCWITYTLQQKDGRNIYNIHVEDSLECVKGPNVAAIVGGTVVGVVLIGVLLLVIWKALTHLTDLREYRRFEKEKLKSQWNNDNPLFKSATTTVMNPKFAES
Chain of LFA-1 receptor on human Molt-3 T-cells (P20701 26-1170, chain 1 of 2): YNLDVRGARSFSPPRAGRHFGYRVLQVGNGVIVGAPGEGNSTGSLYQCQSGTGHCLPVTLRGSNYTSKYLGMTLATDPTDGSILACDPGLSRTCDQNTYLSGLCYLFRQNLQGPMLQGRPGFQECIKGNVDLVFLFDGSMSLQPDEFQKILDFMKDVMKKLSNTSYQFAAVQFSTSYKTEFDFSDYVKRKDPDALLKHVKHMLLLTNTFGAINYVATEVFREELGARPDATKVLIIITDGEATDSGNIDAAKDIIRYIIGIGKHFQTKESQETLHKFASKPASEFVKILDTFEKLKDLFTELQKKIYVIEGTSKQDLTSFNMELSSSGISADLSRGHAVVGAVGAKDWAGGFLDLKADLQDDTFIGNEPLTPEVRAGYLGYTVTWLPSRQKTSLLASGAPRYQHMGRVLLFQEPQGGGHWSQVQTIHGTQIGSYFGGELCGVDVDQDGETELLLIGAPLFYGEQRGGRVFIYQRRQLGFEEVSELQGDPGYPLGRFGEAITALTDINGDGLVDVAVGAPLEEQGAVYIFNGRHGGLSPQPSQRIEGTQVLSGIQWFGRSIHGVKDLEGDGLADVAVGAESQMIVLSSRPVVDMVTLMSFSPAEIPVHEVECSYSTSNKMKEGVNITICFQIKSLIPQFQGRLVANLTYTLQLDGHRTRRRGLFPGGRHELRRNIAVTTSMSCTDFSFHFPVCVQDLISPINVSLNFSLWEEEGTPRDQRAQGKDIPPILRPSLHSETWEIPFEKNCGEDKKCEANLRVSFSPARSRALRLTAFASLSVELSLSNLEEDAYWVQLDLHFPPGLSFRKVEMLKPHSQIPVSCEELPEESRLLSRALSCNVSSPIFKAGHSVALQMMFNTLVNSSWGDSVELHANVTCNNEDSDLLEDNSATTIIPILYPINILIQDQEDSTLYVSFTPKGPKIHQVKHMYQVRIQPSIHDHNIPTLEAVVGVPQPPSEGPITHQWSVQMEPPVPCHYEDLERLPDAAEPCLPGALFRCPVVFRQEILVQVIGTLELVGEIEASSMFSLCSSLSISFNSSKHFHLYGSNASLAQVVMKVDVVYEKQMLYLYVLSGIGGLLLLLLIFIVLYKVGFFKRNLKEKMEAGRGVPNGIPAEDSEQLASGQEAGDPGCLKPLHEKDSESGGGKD
Chain of LFA-1 receptor on human Molt-3 T-cells (P05107 23-769, chain 2 of 2): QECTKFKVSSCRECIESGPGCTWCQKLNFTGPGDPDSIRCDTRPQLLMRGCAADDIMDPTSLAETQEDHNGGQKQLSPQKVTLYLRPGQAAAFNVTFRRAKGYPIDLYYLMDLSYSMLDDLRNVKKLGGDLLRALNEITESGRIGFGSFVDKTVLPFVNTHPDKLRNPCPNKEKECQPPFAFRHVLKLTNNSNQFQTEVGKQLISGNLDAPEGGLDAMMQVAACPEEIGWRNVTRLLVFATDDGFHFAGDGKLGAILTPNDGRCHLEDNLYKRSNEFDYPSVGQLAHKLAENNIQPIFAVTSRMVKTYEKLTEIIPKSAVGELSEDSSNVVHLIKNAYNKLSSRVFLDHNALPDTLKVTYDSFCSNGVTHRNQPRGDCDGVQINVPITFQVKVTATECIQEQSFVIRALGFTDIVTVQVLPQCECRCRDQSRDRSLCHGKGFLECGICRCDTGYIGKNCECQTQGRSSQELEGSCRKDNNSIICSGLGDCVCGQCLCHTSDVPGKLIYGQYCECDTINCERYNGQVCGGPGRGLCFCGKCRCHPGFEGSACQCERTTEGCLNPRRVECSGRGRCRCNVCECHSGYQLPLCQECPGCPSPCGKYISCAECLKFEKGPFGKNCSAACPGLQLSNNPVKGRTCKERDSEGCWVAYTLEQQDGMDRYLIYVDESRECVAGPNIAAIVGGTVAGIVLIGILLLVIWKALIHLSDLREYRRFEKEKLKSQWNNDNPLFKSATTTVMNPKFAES

Row | IC50 in micromolar, growth inhibition, L1210 mouse leukemia cells [2] | Km relative to MTX (Dixon plot, DHFR inhibition assay) [3] | Binder | IC50 in micromolar, cytotoxicity, Molt-3 T-cells [1]
1 | 5.5 µM | ~15 fold | {MTX}-LPRGGSVLVT (also: cyclic peptide, ring closure not given here) [MTX-cIBR conjugate (methotrexate-cyclo-Leu Pro Arg Gly Gly Ser Val Leu Val Thr)] | 2.75 µM
2 | 1.6 µM | – | {MTX}-PRGGSV-NH2 [MTX-PRGGSV] | 5.13 µM
3 | 0.7 µM | – | {MTX}-VILPRG-NH2 [MTX-VILPRG] | 9.12 µM
4 | 9.14 µM | ~4 fold | {MTX}-QTSVSPSKVI (also: cyclic peptide, ring not given here) [MTX-cIBL conjugate] | 2.68 µM
